The results in this text go back to the DeepSol protein solubility set.

The nature of the data set: soluble on expression in E. coli; label from the status in PepcDB or PDB records.
“MGSDKIHHHHHHMPYTIPNNSCVGCDNCRPQCPTGAIKIEDNEYWVDPGLCNNCEGYYSEPQCVIACPTKSPIPWQAKKGRCKVEPRDSTSLDLFSNGKNNPFASAIAIWEACNVLGQRTSLHWETDEDGYLCYSRQVNQGKGAIAFHIQDPFQVNDKATDIAAIEALDIRAACIHLIFAGYATALEQPWEQEFAIDERQIEKYLGMEKRKDLSKAAKLALMKNLVQQACSLIISIDWPQQGRINGFSVTNSRLWHLVDIQHHFQEDNHGCKYLIGLTFKVKAGLWAQYFLNKQACKERTAFYQYGSLPKTLLTTVMSIWQQHEGAVRLMLWLLFKTKMGKEQRITIPTLLRIAYGEEKVALASRQREERKRLLRTFESDLEILNHYGMKPLFDPVTYPPEIQPLWAKLIDLPEDPDEALEFWTNDGGSETRLTDTGPRGKWNLLMNARILAFELPPEWEQQISESEKKKTRTAKAKKKTKATNDLLGEQILQARKNLNLSQRELAKLTGKSQSWIRDIENGRLKAKLEDQLLLRKVLNMASS”: the “soluble on expression in E. coli” value is reported as “not soluble”.

Turning to “MGSDKIHHHHHHMRIKAVSSLVGGEVLAEPILTEKNDILIPNGTRIKPDYVPLIESLGIESVMVEDPYENYESPNSIVDPAIFDKYVKKVRRLMESHIYHDGKSLKEFEIIANDIVHDINDMPYDVIVDIKERNSDLYEHTVMVTLLSVLVARKLKLDEKRKYNIAVGCLLHDIGLRFIVTRYKNRDFSNANPAELFEYKKHTILGYSALDEENWIAPISMKMVLSHHENMAGTGFPMKQKNKELECRIIQACDAFDSLISGMECKRICVQEAINQIKENDGGRFDNKIIKCLLSSIARYPVGTTVKTNAEEEGVVVSQTVDPENPIIMIFGNENNGKLMLHNRLNLMLDKNISILQVI”, the “soluble on expression in E. coli” value is given as “not soluble”.

Take “MGSDKIHHHHHHMKRTYESGDKMIHTRGKAEGLREKLATILSQDYKELAVQDLKVIGTGVQNIVFRGDSEKGALAFRVPWEREVENINEDLFNSRISLQKEAELSKYCHSKGISVPRIHGLHLSAELDFLISDCVYTDHMPISAHKIGELVSKLHSMPIDDLHYEQNIREPISKYIAERIVKRIEGFNTITNCGMKLPDTKTIEHILSTADHEKSLLHMDIRPANLIGYNGEVKAIVDWDNALIGHPLLELMRIAETNEVSWEEFKDGYKNDSIFNATSHIVSLFYRLDTAVMLANLFIAHLKIEDKGVFYKERVKAIHHEIYKSL”: the “soluble on expression in E. coli” value is reported as “not soluble”.

“MNIGVIILAAGEGKRFGGDKLLAKIDNTPIIMRTIRIYGDLEKIIIVGKYVNEMLPLLMDQIVIYNPFWNEGISTSLKLGLRFFKDYDAVLVALGDMPFVTKEDVNKIINTFKPNCKAVIPTHKGERGNPVLISKSLFNEIEKLRGDVGARVILNKIKIEELCFIECSEGVLIDIDKKEDLMRLRDFHPLEHHHHHH”: the “soluble on expression in E. coli” value is listed as “soluble”.

Consider “MKNLSLFTDFYEISMMNAYFTKGINPKAKFEVFFRKTPFKNGYIVLAGMHTLINELKNIRFGENELKYLKSFNILDKQFLNFLREFKLNVKISSIEEGRIVFPQAPVVVIEGHLIELLLIEGLVLNIINFESLIATKTARIKESGAKILAELGLRRAQGINGALSASKAAYIGGADFTSNMLAGYKYNIPVTGTMAHSWIMSFETEEQAFREYAKTYPNKVSLLIDTYDTLNSGLKNAIKIFKELKHEEKNNFSIRIDSGDLEYLSKAARKELNRNGLNHVKIIASNELDENIIMYLNSINAPIDIWGVGTNLVTAKGDPSLSGVYKMISIEKNGKFIPKIKISNNAEKSTLPDQKEVARIYLNDQMILDFIFLKEEKDKIKDHLNSRKEFTVFHPIQDNIFKIIKQYDDFEFLTHTVLENGKLRKGYESSLTNIRNKTKLDLSKLEHTYKRIINPHIYKVSISKNLRKLKNKLTKDIKNN”, for which the “soluble on expression in E. coli” value is given as “not soluble”.

On to “GEHTTCGCGEHCGCNPCACGREGTPSGRANRRANCSCGAACNCASCGSATAPG”, for which the “soluble on expression in E. coli” value was “soluble”.

Regarding “MNRWEGLDEFVAVAETGQFTAAAERMGVSSSHISRQVARLEERLQTRLLYRSTRRVSLSEAGQTFLQHCQRLQDARDEALRAVSDLSAEPKGLLRMTCAVAYGERFIVPLVNAFMADYPQLRVDIELSNRQLDLLHEGFDLAIRLGRLSDSRLVATRLAPRVMYLCATPEYLRRHGTPQSPAELGQFNCLIGSSDLWSFLEDGRETQHRVQGNWRCNSGQAVLDAALRGFGLCQLPDYYVIEHLRSGRLASLLEGHQPPNTAVWALYPQQRHLSPKVRQLVDYLKEGLAQSHPGLAGEKNLR”, the “soluble on expression in E. coli” value is recorded as “not soluble”.

Regarding “MSLKVLAFDTSSKALSLAILEDKQVLAETTINIKKNHSITLMPAIDFLMASLDWTPKDLDRIVVAEGPGSYTGLRIAVATAKTLAHTLNIELVGMSSLLALVPYQQEGLFIPLMDARRNNVYAGFYENAKPVMAEAHLPFERVIELIKGASQVTFVGEVGPFVEQIQKHLPRTDYKETLPNAANLALLAWDKEADSLHDFVPNYLKRVEAEENWLKNHTESGESYIKRLEGHHHHHH”, the “soluble on expression in E. coli” value is “soluble”.

For the sequence “MLKRCNFKNQVKYFQSDFEQLIRQHPEKIIILDFYATWCGPCKAIAPLYKELATTHKGIIFCKVDVDEAEDLCSKYDVKMMPTFIFTKNGDAIEALEGCVEDELRQKVLEHVSAQ”, the “soluble on expression in E. coli” value was “not soluble”.

Turning to “MKTVYLTIDDGPSKDRKEKVDILYQYGIQPIWFCIGSEIEKRPEDVIYSIRKGGIIGNHSYSHPRFSQISLEECFEEIEKTDRIIDSIYREAGVARPIKAFRFPYGDKGEDNNFFKKPYSEEGKKKISKIMTFLKELGYTKPKFDGITYEYYSKFGLKDDIDWYWTYDVAEWCTFQEKPMFGVRTIDDVFELMELDLPEKWAGLNYPYSDDIILMHDHPQTTPLFKPIICQLLKKGLHFGAIPLE”, the “soluble on expression in E. coli” value is listed as “soluble”.

As for “MAKPLMAKATAVWLVDNTTISFKQIADFVGMHELEIQGIADGDVAAGVKGFDPIANNQLTQEEIDKAEQNPLHKLKLKFNPAAAGEEKRRGPRYTPLSKRQDRPNAILWLVKFHPELSDGQIAKLVGTTKPTIQSIRERTHWNISNMQPIDPVALGLCRQSELDSVVQKAAAKKAAEGGVMSDDERRKLVSTEQSLGMDTGPRIPTAIEGLENFSLSEPISTSDDDEEDHRSIADADSFFNLPKGGTDDEDEDDDPRYLEHHHHHH”, the “soluble on expression in E. coli” value is “soluble”.

Turning to “MSLSVRFAGMATCVPKRVVSNLTDCKPQIRPERERLVRNIGIELRRLTQEWQCFSDLAFDAASKLIESLEWKLEEIDALIVVTQSPDYLAPATAIILQDRLGLPHTTLAFDVNLGCSGYPFGLHLLGSLISAGGIKKGLVLVGDSGAQLNDPIFSDAGTATAMEFCADAPPMYFDLNSDGSGHKAIILPVGGHREPVGIQHLVPFRENENDHWHRAIDLQLDGTAVLSFSTQRVPPAVEKLLEYANASKDEVDYFIFHQANRMINETIRKKLALPVEKVPSTLRDFGNTSGASLPVTMTARINKQLEEGSKRLVLSGFGIGLSWGTCLVDIQGAKFPDLIESEGHHHHHH”, the “soluble on expression in E. coli” value is “not soluble”.

Consider “MSLNQWMELADRVLAGAEVTDEEALSILHCPDEDILLLMHGAFHIRKHFYGKKVKLNMIMNAKSGLCPENCGYCSQSAISKAPIESYRMVNKETLLEGAKRAHDLNIGTYCIVASGRGPSNREVDQVVDAVQEIKETYGLKICACLGLLKPEQAKRLKDAGVDRYNHNLNTSQRNHSNITTSHTYDDRVNTVEIAKESGLSPCSGAIIGMKETKQDVIDIAKSLKALDADSIPVNFLHAIDGTPLEGVNELNPLYCLKVLALFRFINPSKEIRISGGREVNLRTLQPLGLYAANSIFVGDYLTTAGQEETEDHKMLSDLGFEVESVEEMKASLSAKSEGHHHHHH”, for which the “soluble on expression in E. coli” value was “soluble”.

In the case of “MGSDKIHHHHHHMTSLKQQLLDVKGGRNFRELGGYQTVSGKKIKMHKLIRSGHLADLLKEDQEYLRRYGLKYDIDLRTSFERNKQPDRKISGVEYFADPVFDEDLTNSTMSISDMARESQDPGWGYQRMLWAYKNMATGKNANKAYQHLFEVLLANEKDSESVLFHCTAGKDRTGFGAILILTALGVPMKTIEKDYLFTNEVIKDFVSQLLAKEKAAGADDSLLATFRDLQTVQPAYFKYLLDVINRNYGSINAYLHQQIGLSNADLLDLRTIYLEK”, the “soluble on expression in E. coli” value is “not soluble”.

Turning to “MPFKPVEHPKCPKCGKSVYAAEEMSAGGYKWHKFCFKCNMCNKLLDSCTVAPHEAELYCKQCHGRKFGPKGVGFGLGAGCLTTDSGEKFGGSKQT”, the “soluble on expression in E. coli” value was “not soluble”.

Regarding “MAGDPMNVEGMATGGIHMELHCPQCQHVLDQDNGHARCRSCGEFIEMKALCPDCHQPLQVLKACGAVDYFCQHGHGLISKKRVEFVLALEHHHHHH”, the “soluble on expression in E. coli” value is on record as “not soluble”.

With “MAMQMQLEANADTSVEEESFGPQPISRLEQCGINANDVKKLEEAGFHTVEAVAYAPKKELINIKGISEAKADKILAEAAKLVPMGFTTATEFHQRRSEIIQITTGSKELDKLLQGGIETGSITEMFGEFRTGKTQICHTLAVTCQLPIDRGGGEGKAMYIDTEGTFRPERLLAVAERYGLSGSDVLDNVAYARAFNTDHQTQLLYQASAMMVESRYALLIVDSATALYRTDYSGRGELSARQMHLARFLRMLLRLADEFGVAVVITNQVVAQVDGAAMFAADPKKPIGGNIIAHASTTRLYLRKGRGETRICKIYDSPCLPEAEAMFAINADGVGDAKD”, the “soluble on expression in E. coli” value is “soluble”.

In the case of “MGHHHHHHSHMNSAEQTVTWLITLGVLESPKKTISDPEGFLQASLKDGVVLCRLLERLLPGTIEKVYPEPRSESECLSNIREFLRGCGASLRLELLFPPSQPPQHLVTTILLSASTFDANDLYQGQNFNKVLSSLVTLNKVTADIGLGSDSVCARPSSHRIKSFDSLGSQSLHTR”, the “soluble on expression in E. coli” value was “soluble”.

As for “MGSDKIHHHHHHMSSWEQRSHYLIEVAQRSLIGHKTFDLCRSHLVAASQISKGTIYNHFTTEADLVVAVACAEYEEWLAAAKRDMQRYPDPLTRFLYHHCYRLHQMLSQQRYVIERVMPNQALLLQATDSYRQRFEKISTEYNHWNRLTISEIGDIPGFNRAELVKDYLRGAMINSDDANRQADDVQLYCQFSYALSQLMGHSDKRIPTKPAFVHWLSHLPSTSAISAV”, the “soluble on expression in E. coli” value was “not soluble”.

“MTSLTNAVFKRYLAVTPSAHQALKTRIKKKSSSFDKFFPQQSNSRKKQWETLNEDKASWFKRKYAHVHAREQDRAADPYGKKKAHVEKLKEIKNQAKLNQKSHKSKFQNKDIALKLMNDNPIFEYVYGTNSVYAALLNPSRNCHSRLLYHGTIPSKFLQIVDELKVTTELVDKHRLNLLTNYGVHNNIALETKPLQPVEIAYLGDMDTSSAALSIHELGFNNENIPHELPYGTKTDAKKFPLGLYLDEITDPHNIGAIIRSAYFLGVDFIVMSRRNCSPLTPVVSKTSSGALELLPIFYVDKPLEFFTKSQEMGGWTFITSHLANATSEKYTVGKTISMHDLNGLCNELPVVLVVGNESQGVRTNLKMRSDFFVEIPFGGIEKGNRAPEPIVDSLNVSVATALLIDNILTCK”: the “soluble on expression in E. coli” value is reported as “soluble”.

For “MIGELVKDKILIKNIEDARLIYKMGYYGKPIGISKPKSAEEINSELILSLIEGVYLVKKGKLEIVSNGERLDFERLYQIGVTQIPRFRILYSVYEDLREKGYVVRSGIKYGADFAVYTIGPGIEHAPYLVIALDENSQISSNEILGFGRVSHSTRKELILGIVNLTNGKIRYIMFKWLKM”, the “soluble on expression in E. coli” value is listed as “soluble”.
